From paper PMC3105389
Like-named read-outs stand apart in the source and are kept apart here.

Tests used:
[1] = biological target: T1, MobMN199 (MobM relaxase domain) (Streptococcus plasmid pMV158 (plasmid …, UniProt P13925 1-199)); experiment: competition
T1 sequence: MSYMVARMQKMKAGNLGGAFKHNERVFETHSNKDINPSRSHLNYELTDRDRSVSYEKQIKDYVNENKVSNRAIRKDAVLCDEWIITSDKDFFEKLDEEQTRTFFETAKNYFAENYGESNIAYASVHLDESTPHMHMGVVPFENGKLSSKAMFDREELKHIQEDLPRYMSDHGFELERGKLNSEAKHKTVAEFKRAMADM

[2] = biological target: T1, MobMN199 (MobM relaxase domain); experiment: competition; remark: listed apart in the source
[3] = biological target: T1, MobMN199 (MobM relaxase domain); experiment: competition; remark: listed apart in the source
[4] = biological target: T1, MobMN199 (MobM relaxase domain); experiment: EMSA

B1: IR1-R 11-mer (ssDNA)
DNA: GAATATAAAGT
B1: no binding [1].

B2: 10-NIC 10-mer (ssDNA)
DNA: GTATAGTGTG
B2: no binding [2].

B3: IR1+8 26-mer (ssDNA)
DNA: ACTTTATGAATATAAAGTATAGTGTG
B3: binds [3].

B4: IR3-L 15-mer (ssDNA)
DNA: GCACACACTTTATGA
B4: no binding [1].

B5: ORIT 42-mer (ssDNA)
DNA: GCACACACTTTATGAATATAAAGTATAGTGTGTTATACTTTA
B5 was tested, and the Kd [4] was 58 ± 6 nM.

B6: IR2 24-mer (ssDNA)
DNA: TAAAGTATAGTGTGTTATACTTTA
B6: no binding [1].

B7: IR3 32-mer (ssDNA)
DNA: GCACACACTTTATGAATATAAAGTATAGTGTG
B7 showed a Kd [4] of 60 ± 7 nM.

B8: IR1 18-mer (ssDNA)
DNA: ACTTTATGAATATAAAGT
B8: no binding [2].
